Residue numbers refer to the chain shown, from its start.
How the values were obtained:
[1] = system: T1, Cry8Bb1-ISC-1 88 kDa polypeptide
T1 sequence: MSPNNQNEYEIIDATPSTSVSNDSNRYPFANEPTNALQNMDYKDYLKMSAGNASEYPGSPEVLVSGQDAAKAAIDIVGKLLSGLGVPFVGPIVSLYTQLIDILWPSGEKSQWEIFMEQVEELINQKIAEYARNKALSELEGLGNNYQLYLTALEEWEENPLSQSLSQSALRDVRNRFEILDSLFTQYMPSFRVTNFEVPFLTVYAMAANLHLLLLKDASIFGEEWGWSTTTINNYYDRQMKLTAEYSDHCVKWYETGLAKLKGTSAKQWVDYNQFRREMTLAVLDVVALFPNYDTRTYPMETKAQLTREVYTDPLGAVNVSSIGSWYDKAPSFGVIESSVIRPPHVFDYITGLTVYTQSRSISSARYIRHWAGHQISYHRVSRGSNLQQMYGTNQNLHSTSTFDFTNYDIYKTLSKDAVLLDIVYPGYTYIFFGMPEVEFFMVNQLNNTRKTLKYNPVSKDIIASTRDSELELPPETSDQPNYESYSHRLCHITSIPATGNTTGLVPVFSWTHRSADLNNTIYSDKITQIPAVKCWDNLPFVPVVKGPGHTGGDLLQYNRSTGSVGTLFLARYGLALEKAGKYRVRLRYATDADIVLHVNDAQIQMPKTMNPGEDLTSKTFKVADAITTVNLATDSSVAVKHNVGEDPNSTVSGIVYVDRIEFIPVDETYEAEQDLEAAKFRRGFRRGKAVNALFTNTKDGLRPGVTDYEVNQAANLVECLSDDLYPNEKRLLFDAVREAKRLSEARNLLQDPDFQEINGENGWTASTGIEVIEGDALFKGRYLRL

[2] = system: T2, Cry8Bb1-K05 88 kDa polypeptide
T2 sequence: T1 sequence with L161F, S162R, Q163R, S164G, L165F, S166R, Q167R, S168G

## chymotrypsin
[1]
  proteolytic digestion for 72 h (SDS-PAGE): the 88 kDa Cry8Bb1-ISC-1 polypeptide was not cleaved within the activation loop to generate the 55 kDa polypeptide
[2]
  proteolytic digestion for 72 h (SDS-PAGE, N-terminal sequencing): Cry8Bb1-K05 was cleaved within the loop between helix 3 and 4 of domain I of the toxin molecule to generate a 55 kDa polypeptide

## trypsin
[1]
  proteolytic digestion for 72 h (SDS-PAGE): the 88 kDa Cry8Bb1-ISC-1 polypeptide was not cleaved within the activation loop to generate the 55 kDa polypeptide
[2]
  proteolytic digestion for 72 h (SDS-PAGE, N-terminal sequencing): Cry8Bb1-K05 was cleaved within the loop between helix 3 and 4 of domain I of the toxin molecule to generate a 55 kDa polypeptide

— patent publication US20060288448
